Earlier results in article PMC3332193.

Molecular target: EGFR (Homo sapiens) (UniProt P00533)

For EGF (from UniProt P01133), which Kd is on record?
The Kd was under 12 nM.
